# Fewer inactive variants are shown than the library holds.
# B1: TPR 5TU (parent)
# chain: GGAUCUUCUCGAUCUAACAAAAAAGACAAAUCUGCCACAAAGCUUGAGAGCAUCUUCGGAUGCAGAGGCGGCAGCCUUCGGUGGCGCGAUAGCGCCAACGUUCUCAACUAUGACACGCAAAACGCGUGCUCCGUUGAAUGGAGUUUAUCAUG
# Variants of: B1
# Experiment: polymerase ribozyme fitness, log enrichment relative to wild type (log ratio); higher = more active; in vitro selection for triplet polymerase activity
# Procedure, shortened: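 Genotype fitness is the logarithm of its enrichment divided by wild-type enrichment, using inverse-variance-weighted averages of replicates. That logarithm is base 2. Enrichment was measured by Illumina sequencing of input and output libraries from one triplicate in vitro selection round, with frozen incubation at −7 °C, on PCR-built, transcribed mutant libraries of each subunit of a heterodimeric triplet polymerase ribozyme, retaining genotypes with ≥10 input reads and ≥1 read per output.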
row,Variant,polymerase ribozyme fitness (log ratio)
1,GGAUCUUCUCGAUCUAACAAAAUAGACAAAUCUGCCACAAAGCUUGAGAGCAACGUCGGAUGCAGAGGCGGCAGCCUUCGGUGGCGCGAUAGCGUCAACGUUUUCAACUAUGAUACGCAAAACGCAUGCUCCGUUUAAUGGAGUUUAUCUUG,≤ -4.2
2,GGAUCUUCUCGAUCUAACAAAAACGACAGAUCUGCCACAAAGCUUUAGAGCAUCUUCGGAUGCAGAGGCGGCAGCCUUCGGUGGUGCGAUAGCGCCAACGUUCUCAACUAUGACACGCAAAACGCGUGGUACGUUGAAUGCAGUUUAUCAUG,≤ -4.2
3,GGAUCUUCUCGAUCUAACAAAAACGACAAAUCUGCCACGAAGCUUGAGAGCAUCUUCGGAUGCAGAGGCGGCAGCCUUCGGUGGCGCGAUAGCGCCAACGUUCUCAACUAUGACACGCAAAACGCGUGCUCCGUUGAAUGGAGUUUAUCAUG,-3.42
4,GGAUCUUCUCGAUCUAACAAAAACGACAAAUCUGUCACAAAGCUUGAGAGCAUCUUCGGAUGCAGAGGCGGCAGCCUUCGGUGGCGGGAUAGCGCCAUCGUUUUCAACUAUGACACGCAAAACGGGUGCUCCGUUGAAUGGAGUUUAUCAUG,≤ -4.2
5,GGAUCUUCUCGAUCUAACAAAAACGACAAAUCUGCCACAAAGCUUGAGAGCAUCUUCGGAUGCAGCGGCGCCAGCCUUCGGUGUCGCGAUAGCGCCAACGUUCUCAACUAUGACACGCAAAACGCGUGCUCCGUUGAAUGGAGUUUAUCAUG,≤ -4.2
6,GGAUCUUCUCGAUCUAACAAAAUAGACAAAUCUGCCACAAAGCUUGAGAGCAUCUUCGGAUGCAGAGGCGGCAGCCUUCGGUGGCGCGAUAGCGCCAACGUUCUCAACUAUGACACGCAAAACGCGUGCUCCGUUGAAAGGAGUUUAUCAUG,≤ -4.2
7,GGAUCUUCUCGAUCUAACAAAAUAGACAAAUCUGCCACAAAGCUUGAGAGCAUCUACGGAUGCAGAGGCGGCAGCCUUCGGUGGCGCGAUAGCGCCAACGUUCUCAACUAUGACACGCAAAACGCGUGCUCCGUUGAAUGGAGUUUAUCAUG,-3.49
8,GGAUCUUCUCGAUCUAACAAAAUAGACAAAUCUGCCACAAAGCGUGAGAGCAUCUUCGGAUGCAGAGGCGGCAGCAUUUGGAGGCACGAUAGCGCCAACGUUCUCAACUAUGACACGCAAAACGCGUGCUCCGUUGAAUGGAAUUUAUCAUG,≤ -4.2
9,GGAUCUUCUCGAUCUAACAAAAACGACAAAUCUGCCACAAAGCUUGAGAGCAUCUUCGGAUGCAGAGGAGGCAGCCUUCGGUGGCGCGAUAGCGCCAACGUUCUAAACUAUGAUACGCAAAUCGCGUGCUCCGUUGAAUGGAGUUUAUCAUG,≤ -4.2
10,GGAUCUUCUCGAUCUAACAAAAACGACAAAUCUGCCACAAAGCUUGAGAGUAUGUUCGGAUGCAGAGGCGGCAUCCUUCGGUGGGGCGAUAGCGCCUACGUUCUCAACUAUGACACGCAAAACGCGUGCUCCGUUGAAUGGAGUUUAUCAUG,-4.18
11,GGAUCUUCUCGAUCUAACAAAAACGACAAAUCUGCCACAAAGCUUGAGAGCGUCUUCGGAUGCAGAGGCGGCAGCCUUCGGUGCCGCUAUAGCGUUAACGUGCUCAACUAUGACACGCAAAACGCGUGCUCCGUUGAAUGGAGUUUAUCAUG,≤ -4.2
12,GGAUCUUCUCGAUCUAACAAAAACGACAAAUCUGCCAAAAAGCUUGAGAGCAUCUUCGGAUGCAGAGGCGGCAGCCAUCGGUGCCGCGUUAGCGCCAACGUUCUCAACUAUGACACGCAAAACGCGUGCUCCGUUGAAUGGAGUUUAUCAUG,≤ -4.2
13,GGAUCUUCUCGAUCUAACAAAAUAGACAAAUCUGCCACAAAGCUUGAGAGCAUCUUCGGAUGCAGAGGCGGCAUCCUUCGGUGGCGCGAUUGCGCCAACGUUCUCAACUAUGACACGCAAAACGCGUGCUCCGUUGAAUGGAGUUUAUCAUG,≤ -4.2
14,GGAUCUUCUCGAUCUAACAAAAACGACAAAUCUGCCACAAUGCUUGAGAGCAUAUUCGGAUGCAGAGGCGGCAGCCUUCGGUGGCGCGAUAGCGCCAACGUUCUCAACUAUGACACGCAAAACGCGUGCUCCGUUGAAUGGAGUUUAUCAUG,≤ -4.2
15,GGAUCUUCUCGAUCUAACAAAAACGACAAAUCUGCCACAAAGAUAGAGAGCAUCUUCGGAUGCAGAGGCGGCAGCCUUCGGUGGCGCGAUAGCGCCAACGUUCUCAACUAUGACACGCAAAACGCGUGCUCCGUUGAAUGGAGUUUAUCAUG,≤ -4.2
16,GGAUCUUCUCGAUCUAACAAAAACGACAAAUCUGCCACAAAGCUUGCGAGCAUCUUUGGAUGCAGAGGCGGCAGCCUUCGGUGGCGCGAUAGCGCCAACGUUCUCAACUAUGACACGCAAUACGCGUGCUCCGUUGAAUGGAGUUUAUCAUG,≤ -4.2
17,GGAUCUUCUCGAUCUAACAAAAUAGACAAAUCUGCCACAAAGCUUGAGAGCAUCUUCGGAUGCAGAGGCGGCAGCCUUCAGUGGCGCGAUAGCGCCAACGUUCUCAACUAUGACACGCAAAACGCGUGCUCCGUUGAAUGGAGUUUAUCGUG,≤ -4.2
18,GGAUCUUCUCGAUCUAACAAAAUAGACAAAUCUGCCACAAAGCUUGAGAGCAUCUACGGAUGCAGAGGCGGCAGCCUUCGGUGGCGCGAUAGAGCCAACGGUCUCAACUAUGACACGCAAAACGCGAGCUCCGUUGUAAGGAGUUUAUAAUG,≤ -4.2
19,GGAUCUUCUCGAUCUAACAAAAACGACAAAUCUGCCACAAAGCUUGAGAGCAUGUUCGGAUGCAGAGGCGGCAACCUUCGGAGGCGCGUUAGCGCCAACGUUCUCAACUAUGACACGCAAAACGCGUGCUCCGUUGAAUGGAGUUAAUCAUG,≤ -4.2

# Source: the RNAGym collection of RNA variant scans (doi:10.1073/pnas.2313332121)
